B1: library; numbered along this chain (parent)
chain: MAAAAAAAAEQQSSNGPVKKSMREKAVERRSVNKEHNSNFKAGYIPIDEDRLHKTGLRGRKGNLAICVIILLFILAVINLIITLVIWAVIRIGPNGCDSMEFHESGLLRFKQVSDMGVIHPLYKSTVGGRRNENLVITGNNQPIVFQQGTTKLSVENNKTSITSDIGMQFFDPRTQNILFSTDYETHEFHLPSGVKSLNVQKASTERITSNATSDLNIKVDGRAIVRGNEGVFIMGKTIEFHMGGNMELKAENSIILNGSVMVSTTRLPSSSSGDQLGSGDWVRYKLCMCADGTLFKVQVTSQNMGCQISDNPCGNTH

Variants of: B1
Test: SGCB cell-surface expression functional score (HA stain, bin4 vs bin1, normalised to synonymous) (log10 ratio); higher = more cell-surface SGCB (functional)
Method in brief: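 Sorting and sequencing yield the functional score, defined as the log ratio of a variant's highest-bin frequency to its lowest-bin frequency, with the median taken over codons and replicate transductions. The libraries, codon-saturation sets of HA-tagged, YFP-fused human beta-sarcoglycan, went into HEK293 cells stably carrying alpha-, gamma- and delta-sarcoglycan by duplicate lentiviral transduction at MOI <0.1. Cells were stained on ice with Alexa Fluor 647 anti-HA, fixed and split into four 5% intensity bins, and synonymous variants were scaled per section to mean 0, SD 0.5.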

Variant | SGCB cell-surface expression functional score (log10)
MAAAAAAAAEQQSSNGPVKKSMREKAVERRSVNKEHPSNFKAGYIPIDEDRLHKTGLRGRKGNLAICVIILLFILAVINLIITLVIWAVIRIGPNGCDSMEFHESGLLRFKQVSDMGVIHPLYKSTVGGRRNENLVITGNNQPIVFQQGTTKLSVENNKTSITSDIGMQFFDPRTQNILFSTDYETHEFHLPSGVKSLNVQKASTERITSNATSDLNIKVDGRAIVRGNEGVFIMGKTIEFHMGGNMELKAENSIILNGSVMVSTTRLPSSSSGDQLGSGDWVRYKLCMCADGTLFKVQVTSQNMGCQISDNPCGNTH [N37P] | -0.1
MAAAAAAAAEQQSSNGPVKKSMREKAVERRSVNKEHRSNFKAGYIPIDEDRLHKTGLRGRKGNLAICVIILLFILAVINLIITLVIWAVIRIGPNGCDSMEFHESGLLRFKQVSDMGVIHPLYKSTVGGRRNENLVITGNNQPIVFQQGTTKLSVENNKTSITSDIGMQFFDPRTQNILFSTDYETHEFHLPSGVKSLNVQKASTERITSNATSDLNIKVDGRAIVRGNEGVFIMGKTIEFHMGGNMELKAENSIILNGSVMVSTTRLPSSSSGDQLGSGDWVRYKLCMCADGTLFKVQVTSQNMGCQISDNPCGNTH [N37R] | -0.21
MAAAAAAAAEQQSSNGPVKKSMREKAVERRSVNKEHTSNFKAGYIPIDEDRLHKTGLRGRKGNLAICVIILLFILAVINLIITLVIWAVIRIGPNGCDSMEFHESGLLRFKQVSDMGVIHPLYKSTVGGRRNENLVITGNNQPIVFQQGTTKLSVENNKTSITSDIGMQFFDPRTQNILFSTDYETHEFHLPSGVKSLNVQKASTERITSNATSDLNIKVDGRAIVRGNEGVFIMGKTIEFHMGGNMELKAENSIILNGSVMVSTTRLPSSSSGDQLGSGDWVRYKLCMCADGTLFKVQVTSQNMGCQISDNPCGNTH [N37T] | -0.11
MAAAAAAAAEQQSSNGPVKKSMREKAVERRSVNKEHNENFKAGYIPIDEDRLHKTGLRGRKGNLAICVIILLFILAVINLIITLVIWAVIRIGPNGCDSMEFHESGLLRFKQVSDMGVIHPLYKSTVGGRRNENLVITGNNQPIVFQQGTTKLSVENNKTSITSDIGMQFFDPRTQNILFSTDYETHEFHLPSGVKSLNVQKASTERITSNATSDLNIKVDGRAIVRGNEGVFIMGKTIEFHMGGNMELKAENSIILNGSVMVSTTRLPSSSSGDQLGSGDWVRYKLCMCADGTLFKVQVTSQNMGCQISDNPCGNTH [S38E] | 0.31
MAAAAAAAAEQQSSNGPVKKSMREKAVERRSVNKEHNCNFKAGYIPIDEDRLHKTGLRGRKGNLAICVIILLFILAVINLIITLVIWAVIRIGPNGCDSMEFHESGLLRFKQVSDMGVIHPLYKSTVGGRRNENLVITGNNQPIVFQQGTTKLSVENNKTSITSDIGMQFFDPRTQNILFSTDYETHEFHLPSGVKSLNVQKASTERITSNATSDLNIKVDGRAIVRGNEGVFIMGKTIEFHMGGNMELKAENSIILNGSVMVSTTRLPSSSSGDQLGSGDWVRYKLCMCADGTLFKVQVTSQNMGCQISDNPCGNTH [S38C] | -0.16
MAAAAAAAAEQQSSNGPVKKSMREKAVERRSVNKEHNANFKAGYIPIDEDRLHKTGLRGRKGNLAICVIILLFILAVINLIITLVIWAVIRIGPNGCDSMEFHESGLLRFKQVSDMGVIHPLYKSTVGGRRNENLVITGNNQPIVFQQGTTKLSVENNKTSITSDIGMQFFDPRTQNILFSTDYETHEFHLPSGVKSLNVQKASTERITSNATSDLNIKVDGRAIVRGNEGVFIMGKTIEFHMGGNMELKAENSIILNGSVMVSTTRLPSSSSGDQLGSGDWVRYKLCMCADGTLFKVQVTSQNMGCQISDNPCGNTH [S38A] | -0.36
MAAAAAAAAEQQSSNGPVKKSMREKAVERRSVNKEHNGNFKAGYIPIDEDRLHKTGLRGRKGNLAICVIILLFILAVINLIITLVIWAVIRIGPNGCDSMEFHESGLLRFKQVSDMGVIHPLYKSTVGGRRNENLVITGNNQPIVFQQGTTKLSVENNKTSITSDIGMQFFDPRTQNILFSTDYETHEFHLPSGVKSLNVQKASTERITSNATSDLNIKVDGRAIVRGNEGVFIMGKTIEFHMGGNMELKAENSIILNGSVMVSTTRLPSSSSGDQLGSGDWVRYKLCMCADGTLFKVQVTSQNMGCQISDNPCGNTH [S38G] | 0.07
MAAAAAAAAEQQSSNGPVKKSMREKAVERRSVNKEHNFNFKAGYIPIDEDRLHKTGLRGRKGNLAICVIILLFILAVINLIITLVIWAVIRIGPNGCDSMEFHESGLLRFKQVSDMGVIHPLYKSTVGGRRNENLVITGNNQPIVFQQGTTKLSVENNKTSITSDIGMQFFDPRTQNILFSTDYETHEFHLPSGVKSLNVQKASTERITSNATSDLNIKVDGRAIVRGNEGVFIMGKTIEFHMGGNMELKAENSIILNGSVMVSTTRLPSSSSGDQLGSGDWVRYKLCMCADGTLFKVQVTSQNMGCQISDNPCGNTH [S38F] | -0.14
MAAAAAAAAEQQSSNGPVKKSMREKAVERRSVNKEHNDNFKAGYIPIDEDRLHKTGLRGRKGNLAICVIILLFILAVINLIITLVIWAVIRIGPNGCDSMEFHESGLLRFKQVSDMGVIHPLYKSTVGGRRNENLVITGNNQPIVFQQGTTKLSVENNKTSITSDIGMQFFDPRTQNILFSTDYETHEFHLPSGVKSLNVQKASTERITSNATSDLNIKVDGRAIVRGNEGVFIMGKTIEFHMGGNMELKAENSIILNGSVMVSTTRLPSSSSGDQLGSGDWVRYKLCMCADGTLFKVQVTSQNMGCQISDNPCGNTH [S38D] | 0.3
MAAAAAAAAEQQSSNGPVKKSMREKAVERRSVNKEHNHNFKAGYIPIDEDRLHKTGLRGRKGNLAICVIILLFILAVINLIITLVIWAVIRIGPNGCDSMEFHESGLLRFKQVSDMGVIHPLYKSTVGGRRNENLVITGNNQPIVFQQGTTKLSVENNKTSITSDIGMQFFDPRTQNILFSTDYETHEFHLPSGVKSLNVQKASTERITSNATSDLNIKVDGRAIVRGNEGVFIMGKTIEFHMGGNMELKAENSIILNGSVMVSTTRLPSSSSGDQLGSGDWVRYKLCMCADGTLFKVQVTSQNMGCQISDNPCGNTH [S38H] | 0.06
